Legend:
[1] = target: T1, full-length recombinant mouse PAD4 (mouse, UniProt Q9Z183 1-666); assay: ELISA, coated mouse PAD4; antibody 0.015625 ug/mL
T1 construct: mature; Full-length recombinant

[2] = target: T1, full-length recombinant mouse PAD4; assay: ELISA, coated mouse PAD4; antibody 0.25 ug/mL
[3] = target: T1, full-length recombinant mouse PAD4; assay: ELISA, coated mouse PAD4; antibody 0.0039063 ug/mL
[4] = target: T1, full-length recombinant mouse PAD4; assay: ELISA, coated mouse PAD4; antibody 1 ug/mL
[5] = target: T2, Ala mutant of TA0096, SEQ ID NO: 27; assay: ELISA, coated peptide
T2 peptide: AENMDDQWMQDEMEIGY

[6] = target: T3, Ala mutant of TA0096, SEQ ID NO: 34; assay: ELISA, coated peptide
T3 peptide: EENMDDQAMQDEMEIGY

[7] = target: T4, Ala mutant of TA0096, SEQ ID NO: 30; assay: ELISA, coated peptide
T4 peptide: EENADDQWMQDEMEIGY

[8] = target: T5, Ala mutant of TA0096, SEQ ID NO: 43; assay: ELISA, coated peptide
T5 peptide: EENMDDQWMQDEMEIGA

[9] = target: T6, Ala mutant of TA0096, SEQ ID NO: 37; assay: ELISA, coated peptide
T6 peptide: EENMDDQWMQAEMEIGY

[10] = target: T7, Ala mutant having 3-amino acid substitution, SEQ ID NO: 45; assay: ELISA, coated peptide
T7 peptide: EENAAAQWMQDEMEIGY

[11] = target: T8, Ala mutant of TA0096, SEQ ID NO: 41; assay: ELISA, coated peptide
T8 peptide: EENMDDQWMQDEMEAGY

[12] = target: T9, Ala mutant of TA0096, SEQ ID NO: 42; assay: ELISA, coated peptide
T9 peptide: EENMDDQWMQDEMEIAY

[13] = target: T10, Ala mutant of TA0096, SEQ ID NO: 38; assay: ELISA, coated peptide
T10 peptide: EENMDDQWMQDAMEIGY

[14] = target: T11, Ala mutant of TA0096, SEQ ID NO: 29; assay: ELISA, coated peptide
T11 peptide: EEAMDDQWMQDEMEIGY

[15] = target: T12, Ala mutant having 3-amino acid substitution, SEQ ID NO: 47; assay: ELISA, coated peptide
T12 peptide: EENMDDQWMAAAMEIGY

[16] = target: T13, Ala mutant of TA0096, SEQ ID NO: 40; assay: ELISA, coated peptide
T13 peptide: EENMDDQWMQDEMAIGY

[17] = target: T14, Ala mutant of TA0096, SEQ ID NO: 35; assay: ELISA, coated peptide
T14 peptide: EENMDDQWAQDEMEIGY

[18] = target: T15, Ala mutant having 3-amino acid substitution, SEQ ID NO: 44; assay: ELISA, coated peptide
T15 peptide: AAAMDDQWMQDEMEIGY

[19] = target: T16, Ala mutant having 3-amino acid substitution, SEQ ID NO: 48; assay: ELISA, coated peptide
T16 peptide: EENMDDQWMQDEAAAGY

[20] = target: T17, Ala mutant of TA0096, SEQ ID NO: 36; assay: ELISA, coated peptide
T17 peptide: EENMDDQWMADEMEIGY

[21] = target: T18, Ala mutant of TA0096, SEQ ID NO: 28; assay: ELISA, coated peptide
T18 peptide: EANMDDQWMQDEMEIGY

[22] = target: T19, Ala mutant of TA0096, SEQ ID NO: 39; assay: ELISA, coated peptide
T19 peptide: EENMDDQWMQDEAEIGY

[23] = target: T20, Ala mutant of TA0096, SEQ ID NO: 33; assay: ELISA, coated peptide
T20 peptide: EENMDDAWMQDEMEIGY

[24] = target: T21, Ala mutant having 3-amino acid substitution, SEQ ID NO: 49; assay: ELISA, coated peptide
T21 peptide: EENMDDQWMQDEMEIAA

[25] = target: T22, TA0096 (peptide antigen corresponding to positions 340 to 356 of PAD4); assay: ELISA, coated peptide
T22 peptide: EENMDDQWMQDEMEIGY

[26] = target: T23, Ala mutant of TA0096, SEQ ID NO: 31; assay: ELISA, coated peptide
T23 peptide: EENMADQWMQDEMEIGY

[27] = target: full-length recombinant human or mouse PAD4 (species used for Table 7 and FIG. 7 not stated); assay: cell-based or functional assay
[28] = target: T24, full-length recombinant human PAD4 (human, UniProt Q9UM07 1-663); assay: ELISA, coated human PAD4; antibody 0.015625 ug/mL
T24 construct: Full-length recombinant; also called peptidylarginine deiminase 4

[29] = target: T24, full-length recombinant human PAD4; assay: ELISA, coated human PAD4; antibody 6.104E-05 ug/mL
[30] = target: T24, full-length recombinant human PAD4; assay: ELISA, coated human PAD4; antibody 0.0002441 ug/mL
[31] = target: T24, full-length recombinant human PAD4; assay: ELISA, coated human PAD4; antibody 0.25 ug/mL

T1 sequence (Q9Z183 whole entry): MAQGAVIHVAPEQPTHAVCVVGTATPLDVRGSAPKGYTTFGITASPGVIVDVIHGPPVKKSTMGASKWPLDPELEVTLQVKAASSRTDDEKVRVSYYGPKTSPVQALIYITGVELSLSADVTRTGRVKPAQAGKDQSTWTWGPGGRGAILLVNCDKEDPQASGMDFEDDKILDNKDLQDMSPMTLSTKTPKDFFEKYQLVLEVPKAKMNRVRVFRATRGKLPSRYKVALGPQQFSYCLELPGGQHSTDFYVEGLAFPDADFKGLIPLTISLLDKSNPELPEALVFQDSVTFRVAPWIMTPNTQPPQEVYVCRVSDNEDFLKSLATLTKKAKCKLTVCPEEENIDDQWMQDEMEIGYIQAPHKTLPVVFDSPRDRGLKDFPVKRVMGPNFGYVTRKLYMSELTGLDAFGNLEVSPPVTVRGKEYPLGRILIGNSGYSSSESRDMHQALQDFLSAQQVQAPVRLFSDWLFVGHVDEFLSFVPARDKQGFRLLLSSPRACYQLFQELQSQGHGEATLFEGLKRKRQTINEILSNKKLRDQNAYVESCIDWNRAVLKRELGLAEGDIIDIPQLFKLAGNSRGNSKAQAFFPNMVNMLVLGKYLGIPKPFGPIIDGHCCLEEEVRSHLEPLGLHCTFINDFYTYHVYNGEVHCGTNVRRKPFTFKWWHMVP
T24 sequence (Q9UM07 whole entry): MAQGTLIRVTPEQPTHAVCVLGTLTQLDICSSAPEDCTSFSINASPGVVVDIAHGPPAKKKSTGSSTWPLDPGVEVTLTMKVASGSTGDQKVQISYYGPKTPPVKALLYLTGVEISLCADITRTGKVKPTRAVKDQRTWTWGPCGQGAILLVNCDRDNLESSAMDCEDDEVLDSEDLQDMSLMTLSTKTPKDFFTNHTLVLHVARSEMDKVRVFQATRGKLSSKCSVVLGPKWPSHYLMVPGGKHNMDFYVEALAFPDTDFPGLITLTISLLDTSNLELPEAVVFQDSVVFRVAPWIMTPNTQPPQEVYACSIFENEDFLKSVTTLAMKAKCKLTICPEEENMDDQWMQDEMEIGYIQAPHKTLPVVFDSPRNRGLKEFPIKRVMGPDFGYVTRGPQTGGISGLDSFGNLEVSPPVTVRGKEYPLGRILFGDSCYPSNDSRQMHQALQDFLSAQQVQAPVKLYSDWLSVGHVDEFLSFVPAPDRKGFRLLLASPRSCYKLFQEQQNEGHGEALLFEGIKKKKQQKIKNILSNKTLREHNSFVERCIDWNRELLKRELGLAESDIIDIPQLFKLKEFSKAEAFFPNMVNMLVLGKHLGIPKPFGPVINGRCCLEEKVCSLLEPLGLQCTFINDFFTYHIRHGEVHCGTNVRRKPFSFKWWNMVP

OD 490/630 nm [1]: 2.26
OD 490/630 nm [2]: 2.31
OD 490/630 nm [3]: 1.41
OD 490/630 nm [4]: 2.3
OD 490/630 nm [5]: 1.9
OD 490/630 nm [6]: 0.066
OD 490/630 nm [7]: 1.95
OD 490/630 nm [8]: 1.87
OD 490/630 nm [9]: 1.86
OD 490/630 nm [10]: 0.016
OD 490/630 nm [11]: 1.83
OD 490/630 nm [12]: 1.85
OD 490/630 nm [13]: 1.99
OD 490/630 nm [14]: 1.9
OD 490/630 nm [15]: 1.67
OD 490/630 nm [16]: 1.86
OD 490/630 nm [17]: 0.065
OD 490/630 nm [18]: 1.9
OD 490/630 nm [19]: 1.87
OD 490/630 nm [20]: 1.87
OD 490/630 nm [21]: 1.95
OD 490/630 nm [22]: 1.81
OD 490/630 nm [23]: 1.87
OD 490/630 nm [24]: 1.86
OD 490/630 nm [25]: 1.82
OD 490/630 nm [26]: 0.462
Relative citrullination activity [27]: 35 relative to PBS = 100
OD 490/630 nm [28]: 2.07
OD 490/630 nm [29]: 0.111
OD 490/630 nm [30]: 0.217
OD 490/630 nm [31]: 2.11
B1: H7 (antibody, V domains shown)
VH: AVTLDESGGGLQTPGGALSLVCKASGFTFSTYAMGWMRQAPGKGLEYVAAIRNDGSWTGYGAAVKGRATILRDNGQSTVRLQLSNLRAEDTGTYYCAKYTGSSGGSIGAWGHGTEVIVS
VL: ASTQPSSVSANPGGTVEITCSGGSGRYYYGWYQQKSPGSAPVTVIYSSTHRPSNIPSRFSGSKSGSTATLTITGVQAEDEAVYFCGTADSSSYVFGAGTTLTVL
notes: Chicken variable regions in a mouse chimeric antibody (IgG1); also called anti-PAD4 antibody H7

From US20180044434A1 (PUBLIC UNIVERSITY CORPORATION YOKOHAMA CITY UNIVERSITY, published 2018)
